Source: publication PMC3590139, “Isocitrate Dehydrogenase from Streptococcus mutans: Biochemical Properties and Evaluation of a Putative Phosphorylation Site at Ser102” (PLoS ONE, 2013)

Columns and labels:
[1] = substrate: O=C(O)CC(C(=O)O)C(O)C(=O)O; test: purified protein; conditions: saturating NAD+, 35 mM Tris-HCl pH 7.5, […] MnCl2, 37 °C
[2] = substrate: NC(=O)c1ccc[n+]([C@@H]2O[C@H](COP(=O)(O)OP(=O)(O)OC[C@H]3O[C@@H](n4cnc5c(N)ncnc54)[C@H](O)[C@@H]3O)[C@@H](O)[C@H]2O)c1; test: purified protein; conditions: saturating DL-isocitrate, 35 mM Tris-HCl pH 7.5, […] MnCl2, 37 °C
[3] = molecular target: the molecule itself; test: SEC; HiLoad 10/300 Superdex 200, 0.05 M potassium phosphate pH 7.0, 0.15 M NaCl, 0.01% NaN3, flow 0.5 ml/min; calibrated with ovalbumin, conalbumin, aldolase, ferritin, thyroglobulin; native mass estimated as 70 kDa against a 43 kDa subunit

Row | Protein | Km [1] | kcat [1] | kcat/Km [1] | Km [2] | kcat [2] | kcat/Km [2] | stoichiometry N [3]
1 | SmIDH (Streptococcus mutans UA159) (protein) MAEKVSFEEGKLQVPDKPVIPYIEGDGVGQDIWKNAQIVFDKAIAKVYGGHKQVIWREVLAGKKAYNETGNWLPNETLEIIKTHLLAIKGPLETPVGGGIRSLNVALRQELDLFACVRPVRYFKGVPSPLKHPEKTAITIFRENTEDIYAGIEWNAGTAEVQKVINFLQDDMQVKKIRFPKSSSIGIKPISIEGSQRLIRAAIEYALANNLTKVTLVHKGNIQKFTEGGFRKWGYELAKREYAAELASGQLVVDDIIADNFLQQILLKPERFDVVALTNLNGDYASDALAAQVGGIGISPGANINYQTGHAIFEATHGTAPDIAGQDLANPSSVLLSGCMLFDYIGWSKVSDLIMKAVEKAIANGQVTIDFAKELGVEALTTRQFSEVLLTYL | 75 µM | 124 s⁻¹ | 1.65e+06 M⁻¹ s⁻¹ | 154 µM | 56 s⁻¹ | 360000 M⁻¹ s⁻¹ | –
2 | NAD+-dependent isocitrate dehydrogenase of Streptococcus mutans (enzyme, UniProt Q59940 1-393, looked up, 399 residues per subunit with the tag; The C-terminal position of the His6 tag is read from the reverse primer R-Sm^icd (CTA + six GTG codons on the antisense strand); also called SmIDH; S. mutans IDH; not shown: His6, C-terminal, kept) MAEKVSFEEGKLQVPDKPVIPYIEGDGVGQDIWKNAQIVFDKAIAKVYGGHKQVIWREVLAGKKAYNETGNWLPNETLEIIKTHLLAIKGPLETPVGGGIRSLNVALRQELDLFACVRPVRYFKGVPSPLKHPEKTAITIFRENTEDIYAGIEWNAGTAEVQKVINFLQDDMQVKKIRFPKSSSIGIKPISIEGSQRLIRAAIEYALANNLTKVTLVHKGNIQKFTEGGFRKWGYELAKREYAAELASGQLVVDDIIADNFLQQILLKPERFDVVALTNLNGDYASDALAAQVGGIGISPGANINYQTGHAIFEATHGTAPDIAGQDLANPSSVLLSGCMLFDYIGWSKVSDLIMKAVEKAIANGQVTIDFAKELGVEALTTRQFSEVLLTYL | – | – | – | – | – | – | 2
